Results as given in PMC7060239.

Target: human DNMT1 RFTS domain, residues 351–600 (human) (UniProt P26358)
Assay: ITC; hRFTS and ubiquitylated hPAF15_(2-30) analogs; VP-ITC; 10 mM HEPES-NaOH (pH 7.5), 150 mM NaCl, 10 μM zinc acetate; one-site model; c value 10,000 for hPAF15_(2-30)Ub2

human DNMT1 RFTS domain, residues 351–600 (human), sequence (P26358 351-600): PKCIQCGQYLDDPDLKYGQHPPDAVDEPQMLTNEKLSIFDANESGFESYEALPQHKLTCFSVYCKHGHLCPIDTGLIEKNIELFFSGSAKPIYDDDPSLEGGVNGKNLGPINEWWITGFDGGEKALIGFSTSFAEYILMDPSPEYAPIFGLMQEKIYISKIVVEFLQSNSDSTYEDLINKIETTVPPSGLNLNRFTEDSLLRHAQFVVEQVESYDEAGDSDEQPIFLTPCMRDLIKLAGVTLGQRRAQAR

hPAF15_(2-30)Ub2, disulfide-linked dual mono-ubiquitylated analog of human PAF15 (residues 2–30) (from UniProt Q15004 2-30)
Kd: 1.4 nM | stoichiometry N: 1

hPAF15_(2-30)K15Ub, disulfide-linked mono-ubiquitylated analog (from UniProt Q15004 2-30)
Kd: 1200 nM
